Assay results published in publication PMC4579573.
One block for each substance: values may come before it.

Key:
[1] = SEC-MALS; complexes and subcomplexes purified from insect cells; size exclusion chromatography coupled to multi-angle light scattering (Figures S1B-E and S8E-G)
[2] = molecular target: CfBRCC36(Ala205Asp)–KIAA0157ΔC heterodimer (C. floridanus)
[3] = molecular target: H. Sapiens ARISC (BRCC36–Abraxas–BRCC45–MERIT40) complex (H. sapiens) (UniProt P46736); test: SEC-MALS; complexes and subcomplexes purified from insect cells; size exclusion chromatography coupled to multi-angle light scattering (Figures S1B-E and S8E-G)
[4] = molecular target: CfBRCC36(Ile212Asp)–KIAA0157ΔC heterodimer (C. floridanus)
[5] = molecular target: CfBRCC36–KIAA0157–BRCC45 triple complex (C. floridanus) (UniProt E2AXC7); test: SEC-MALS; complexes and subcomplexes purified from insect cells; size exclusion chromatography coupled to multi-angle light scattering (Figures S1B-E and S8E-G)
[6] = molecular target: CfBRCC36(Ala205Asp + Ile212Asp)–KIAA0157ΔC heterodimer (C. floridanus); test: as above
[7] = molecular target: K63-linked diUb covalently coupled to AlexaFluor-488 (UniProt P0CG48); test: fluorescence polarisation; complex titrated against 10 nM AlexaFluor-488 K63-linked diUb tracer
[8] = molecular target: Cf BRCC36–KIAA0157 binary complex (C. floridanus) (UniProt E2AXC7); test: SEC-MALS; complexes and subcomplexes purified from insect cells; size exclusion chromatography coupled to multi-angle light scattering (Figures S1B-E and S8E-G)
[9] = molecular target: unlabeled K63 linked diUb (UniProt P0CG48)
[10] = molecular target: CfBRCC36–KIAA0157ΔC heterodimer (C. floridanus); test: SEC-MALS; complexes and subcomplexes purified from insect cells; size exclusion chromatography coupled to multi-angle light scattering (Figures S1B-E and S8E-G)

Substance: CfBRCC36(Ile212Asp)–KIAA0157ΔC heterodimer
percent eluting as monomers of heterodimers [1]: 70% and 36% of proteins, respectively, eluting as monomers of heterodimers

cleavage of a K63-linked diUb fluorigenic substrate in vitro, at near saturating substrate concentrations (>10 μM diUb) (fold less active than WT) [2]: 10
Substance: CfBRCC36(Ala205Asp)–KIAA0157ΔC heterodimer (complex)

stoichiometry N [3]: 2
Substance: H. Sapiens ARISC (BRCC36–Abraxas–BRCC45–MERIT40) complex (from UniProt P46736 1-316; Q6UWZ7 1-409; Q9NXR7 1-383; Q9NWV8 1-329)

cleavage of a K63-linked diUb fluorigenic substrate in vitro, at near saturating substrate concentrations (>10 μM diUb) (fold less active than WT) [4]: 10
Substance: CfBRCC36(Ile212Asp)–KIAA0157ΔC heterodimer (complex)

stoichiometry N [5]: 2
Substance: CfBRCC36–KIAA0157–BRCC45 triple complex (from UniProt E2AXC7 1-253)

percent eluting as super dimers [6]: 15%
Substance: CfBRCC36(Ala205Asp + Ile212Asp)–KIAA0157ΔC heterodimer (complex)

Kd [7]: 2.2 µM
Substance: BRCC36 (E30A+A205D+I212D)-KIAA0157ΔC complex (from UniProt E2AXC7 1-253)

Kd [7]: 2.4 µM
Substance: BRCC36(E30A)-KIAA0157ΔC complex (from UniProt E2AXC7 1-253)

stoichiometry N [8]: 2
Substance: Cf BRCC36–KIAA0157 binary complex (from UniProt E2AXC7 1-253)

Substance: CfBRCC36(Ala205Asp)–KIAA0157ΔC heterodimer
percent eluting as monomers of heterodimers [1]: 70% and 36% of proteins, respectively, eluting as monomers of heterodimers

Substance: CfBRCC36(Ala205Asp + Ile212Asp)–KIAA0157ΔC heterodimer
percent eluting as a monomer of heterodimers [1]: 85% major peak

Km, Michaelis-Menten kinetic analysis for cleavage of K63 diUb (Figure 6B) [9]: 4.2 µM
stoichiometry N [10]: 2
Substance: CfBRCC36–KIAA0157ΔC heterodimer (complex)
